{"source": "paper PMC5476676", "biological_target": "Protein L (UniProt Q51918)", "assay": "BLI"}
{"substance": "Trastuzumab wild-type (recombinant Trastuzumab model) (antibody)", "values": [{"measurement": "koff", "value": "1.2e-05", "unit": "s⁻¹"}]}
